Measured values reported in US20080044413A1 (published 2008).
Changes are numbered by the printed parent chain.

B1: G5 (antibody, V domains shown)
VH: QMQLVQSGPEVKKPGTSVKVSCKASGFTFTDYSMNWVRQARGQRLEWIGFIRNKANDYTTEYSASVKGRVTITRDMSTSTAYMELSSLRSEDTAVYYCARYPRYHAMDSWGQGTSVTVSS
VL: DIQMTQSPSSLSASVGDRVTITCRASQSISNNLHWYQQKPGKAPKLLIKYVFQSISGVPSRFSGSGSGTDFTFTISSLQPEDFATYYCQQSNSWPLTFGGGTKVEIK
notes: also called clone G5; anti-EphA2 antibody G5
B2: Affinity optimized 3F2 (antibody, human IgG1, V domains shown)
VH: EVQLVESGGGVVRPGGSLRLSCAASGFTVSDYSMNWVRQAPGKGLEWIGFIRNKANAYTTEYSASVKGRFTISRDDSKNTLYLQMNSLKTEDTAVYYCTTYPRYHAMDSWGQGTMVTVSS
VL: AIQLTQSPSSLSASVGDRVTITCRASQSISNNLHWYLQKPGQSPQLLIYYGFQSISGVPSRFSGSGSGTDFTLTISSLQPEDFATYYCQQANSWPLTFGGGTKLEIK
notes: human IgG1 with human kappa chain
B3: Chimaeric B 233 (antibody, V domains shown)
VH: EVKLVESGGGLVQPGGSLSLSCAASGFTFTDYSMNWVRQPPGKALEWLGFIRNKANDYTTEYSASVKGRFTISRDNSQSILYLQMNALRAEDSATYYCVRYPRYHAMDSWGQGTSVTVSS
VL: DIVLTQSPATLSVTPGDSVNLSCRASQSISNNLHWYQQKSHESPRLLIKYVFQSISGIPSRFSGSGSGTDFTLSINSVETEDFGMYFCQQSNSWPLTFGAGTKLELK
notes: Soluble IgG with the B233 variable regions; also called chimaeric mAb B233; chimeric B233
B4: parental anti-EphA2 scFv EA2 (scFv)
scFv: DVKLVESGGGLVKPGGSLKLSCAASGFTFSSYTMSWVRQTPEKRLEWVATISSGGTYTYYPDSVKGRFTISRDNAKNTLYLQMSSLKSEDTAMYYCTREAIFTYWGQGTLVTVSAGGGGSGGGGSGGGGSDIKMTQSPSSMYASLGERVTITCKASQDINNYLSWFQQKPGKSPKTLIYRANRLVDGVPSRFSGSGSGQDYSLTISSLEYEDMGIYYCLKYDEFPYTFGGGTKLEIK
notes: The murine EA2 variable regions were cloned in the same manner as the 4H5 scFv (VH, linker, VL, FLAG, His); also called EA2 scFv; not shown: C-terminal FLAG tag and His tag
B5: VH VL 2A4 scFv (scFv)
scFv: QVQLLESGGGLVQPGGSLRLSCAASGFTFSSYTMSWVRQAPGQALEWMGTISSRGTYTYYPDSVKGRFTISRDNAKNSLYLQMNSLRAEDTAVYYCAREAIFTHWGRGTLVTVSSGGGGSGGGGSGGGGSDIQLTQSPSSLSASVGDRVTITCKASQDINNYHSWYQQKPGQAPRLLIYRANRLVDGVPDRFSGSGYGTDFTLTINNIESEDAAYYFCLKYNVFPYTFGQGTKVEIK
notes: FLAG and His tags as for 4H5 scFv
B6: 4H5 VH-VL scFv humanized clone (scFv)
scFv: B5 scFv with R54G, H104Y, H163L, N222D
notes: Expressed with a C-terminal FLAG tag and His tag; also called 4H5 scFv; scFv 4H5
B7: VH VL 2E7 scFv (scFv)
scFv: B5 scFv with H163G, V223R
notes: as for B5
B8: VH VL 12E2 scFv (scFv)
scFv: B5 scFv with H104Y, H163L, V185F, N222D, V223R
notes: as for B5
B9: anti-EphA2 antibody EA2 (antibody, V domains shown)
VH: DVKLVESGGGLVKPGGSLKLSCAASGFTFSSYTMSWVRQTPEKRLEWVATISSGGTYTYYPDSVKGRFTISRDNAKNTLYLQMSSLKSEDTAMYYCTREAIFTYWGQGTLVTVSA
VL: DIKMTQSPSSMYASLGERVTITCKASQDINNYLSWFQQKPGKSPKTLIYRANRLVDGVPSRFSGSGSGQDYSLTISSLEYEDMGIYYCLKYDEFPYTFGGGTKLEIK
notes: Murine monoclonal antibody; Hybridoma ATCC PTA-4380; also called mAb EA2
B10: anti-EphA2 antibody EA5 (antibody, V domains shown)
VH: EVQLQQSGPELVKTGASVKISCKASGYSFTGYYMHWVKQSHGKSLEWIGYISCYNGVTSYNQKFKGKATFTVDTSSSTAYMQFNSLTSEDSAVYYCARSHAMDYWGQGTSVTVSS
VL: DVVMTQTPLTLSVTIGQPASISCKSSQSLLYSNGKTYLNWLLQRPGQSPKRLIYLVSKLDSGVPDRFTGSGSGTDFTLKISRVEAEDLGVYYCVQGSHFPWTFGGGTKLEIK
notes: Murine monoclonal antibody; Hybridoma ATCC PTA-4381; also called mAb EA5

Each binder was assayed against T1, human EphA2 (human, UniProt P29317 24-976) (assay: immunofluorescence microscopy of fixed monolayers of MCF-10A and MDA-MB-231 cells).
T1 construct: whole, on cells; also called EphA2 receptor
Protocol: Monolayers of MCF-10A or MDA-MB-231 cells were cultured atop glass coverslips for at least 24 h at 37° C. before staining. Cell monolayers were fixed in 4% paraformaldehyde (2 min, 25° C.) before incubation with primary antibody (clone G5 (negative control), EA5, EA2, 3F2, or 4H5) for 30 min followed by subsequent staining with AlexaFluor 488-conjugated goat anti-mouse IgG or AlexaFluor 488-conjugated goat anti-human IgG (The Jackson Laboratory). Cells were fixed for analyses by immunofluorescence microscopy. […] The amino acid sequence of the VL and VH domains of the G5 antibody are depicted in FIG. 42.
B1: binds.

What follows are binders tested against T2, Human EphA2-Fc fusion protein (human, UniProt P29317 24-537) (assay: SPR (Biacore 3000), soluble IgG on immobilized EphA2-Fc).
T2 construct: extracellular domain; Expressed in HEK 293 cells; Biotinylated in the capture ELISAs; also called soluble EphA2 Fc fusion protein; not shown: Fc portion of a human IgG1
Binder B2 has a Kd of 0.671 nM, a koff of 0.000127 s⁻¹ and a kon of 189000 M⁻¹ s⁻¹. Work on B3 yielded a Kd of 0.3 nM, a koff of 8e-05 s⁻¹ and a kon of 240000 M⁻¹ s⁻¹.

Each binder was assayed against T2, Human EphA2-Fc fusion protein (assay: SPR (BIAcore 3000), KD against that of 4H5 scFv).
Protocol: (§1) 2A4, 2E7 and 12E2 as well as parental EA2 scFv and humanized 4H5 scFv were induced for expression in E. coli in a 1 L culture volume. The supernatants containing soluble, secreted scFv fragments were spun to remove cellular debris then passed over an anti-FLAG column (Sigma) to purify and isolate the variant proteins. The purified affinity optimized variants were analyzed by surface plasmon resonance detection using a BIAcore 3000 instrument (Pharmacia Biosensor, Uppsala, Sweden). […] For affinity measurement results, see the table in section 6.6, infra.
With B4 the “Fold Difference (vs 4H5)” value was -4.8 fold. B5 was tested, and the “Fold Difference (vs 4H5)” value was 32 fold. In the case of B6, the “Fold Difference (vs 4H5)” value is reported as 1 fold. With B7 the “Fold Difference (vs 4H5)” value was 25 fold. For B8, the “Fold Difference (vs 4H5)” value was 23 fold.

Each binder was assayed against T2, Human EphA2-Fc fusion protein (assay: SPR (BIAcore 3000), purified monomeric scFv, human EphA2).
Protocol: as §1
B4 showed a Kd of 870 nM, a koff of 0.03 s⁻¹ and a kon of 34000 M⁻¹ s⁻¹. Binder B5 has a Kd of 5.7 nM, a koff of 0.0037 s⁻¹ and a kon of 650000 M⁻¹ s⁻¹. For B6, the Kd was 180 nM, the koff was 0.018 s⁻¹ and the kon was 100000 M⁻¹ s⁻¹. B7 was tested, and the Kd was 7.3 nM, the koff was 0.0041 s⁻¹ and the kon was 560000 M⁻¹ s⁻¹. With B8 the Kd was 7.8 nM, the koff was 0.0041 s⁻¹ and the kon was 520000 M⁻¹ s⁻¹.

What follows are binders tested against T3, cynomolgus EphA2 (cynomolgus, UniProt Q1KL86 24-976) (assay: flow cytometry on cynomolgus EphA2 transfected CHO cells, antibody 10 µg/ml, AlexaFluor 488 anti-mouse or anti-human IgG (H+L)).
T3 construct: whole, on cells; also called cynomolgus EphA2 expressed on transfected CHO cells
T3 sequence (Q1KL86 24-976): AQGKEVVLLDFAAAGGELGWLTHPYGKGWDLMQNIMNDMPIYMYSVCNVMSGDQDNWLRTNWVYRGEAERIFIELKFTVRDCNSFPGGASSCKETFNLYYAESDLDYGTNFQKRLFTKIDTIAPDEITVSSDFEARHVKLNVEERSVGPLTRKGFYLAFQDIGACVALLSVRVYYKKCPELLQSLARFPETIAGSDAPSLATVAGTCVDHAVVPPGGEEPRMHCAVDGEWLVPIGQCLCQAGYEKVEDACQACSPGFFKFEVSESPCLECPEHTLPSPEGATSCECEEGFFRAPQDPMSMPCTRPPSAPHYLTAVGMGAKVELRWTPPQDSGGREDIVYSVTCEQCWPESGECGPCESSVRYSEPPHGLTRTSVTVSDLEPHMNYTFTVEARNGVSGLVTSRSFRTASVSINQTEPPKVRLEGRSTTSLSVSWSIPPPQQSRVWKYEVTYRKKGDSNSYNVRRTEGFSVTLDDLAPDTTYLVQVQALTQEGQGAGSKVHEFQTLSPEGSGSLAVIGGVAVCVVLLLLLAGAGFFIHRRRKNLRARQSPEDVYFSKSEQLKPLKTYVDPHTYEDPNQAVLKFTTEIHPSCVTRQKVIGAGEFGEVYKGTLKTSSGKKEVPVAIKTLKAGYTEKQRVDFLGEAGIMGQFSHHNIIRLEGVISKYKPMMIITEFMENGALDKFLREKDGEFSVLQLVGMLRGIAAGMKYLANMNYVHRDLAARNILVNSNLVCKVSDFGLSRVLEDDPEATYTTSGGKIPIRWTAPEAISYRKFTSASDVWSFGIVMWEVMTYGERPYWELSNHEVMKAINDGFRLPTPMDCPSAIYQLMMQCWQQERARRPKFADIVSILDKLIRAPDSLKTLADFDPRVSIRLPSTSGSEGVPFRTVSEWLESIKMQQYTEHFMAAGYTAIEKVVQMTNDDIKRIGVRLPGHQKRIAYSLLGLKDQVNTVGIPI
Protocol: Subconfluent monolayers of SW480 colon carcinoma or cynomolgus EphA2 transfected CHO cells were quickly trypsinized, washed, counted, plated into 96-well round bottom plates, and stained with 10 μg/ml of a negative control antibody (R347), the anti-human EphA2 murine antibody, EA2 (Coffman 2003), or humanized antibodies, 3F2 and 4H5. Cells were resuspended in AlexaFluor 488 anti-mouse or anti-human IgG H+L (Invitrogen) and then analyzed by flow cytometry using a FACSCalibur (Becton Dickinson).
B9: binds. B2: binds.

The binders below were run against T1, human EphA2 (assay: flow cytometry on A549 cells, antibody 10 µg/ml, PE anti-mouse Fc gamma; control: irrelevant antibody of the same isotype [A]).
Protocol: FIGS. 10A-10B: Flow cytometric binding analysis of anti-EphA2 parental antibodies. EphA2 expressing A549 cells (human lung carcinoma cell line) (A), and MDA-MB-231 cells (human breast cancer) (B) were used. Cells (200,000) were incubated with 10 μg/ml of the respective antibody for 30 min on ice. The cells were subsequently washed twice in PBS. The binding of the primary antibody was detected via an phycoerythrin-conjugated murine Fc-gamma specific antibody (Dianova, order no. 115-116-071) diluted 1:100 in 50 μl PBS with 2% FCS. As negative control, an irrelevant antibody with the same isotype was used (thin line). Cells were analyzed by flow cytometry on a FACS-Calibur (Becton Dickinson, Heidelberg). […] The binding capabilities of the three different antibodies are shown in a histogram overlay (4th peak from left=B322 antibody; 3rd peak from left=EA2 antibody; 2nd peak from left=EA5 antibody; far left peak—control).
A flow cytometric analysis was performed to estimate the binding strength of the anti-EphA2 parental monoclonal antibodies […], EA2 and EA5 (FIG. 10). […] The binding of the primary antibody was detected via an phycoerythrin conjugated murine Fc-gamma specific antibody (Dianova, order no. 115-116-071) diluted 1:100 in […] PBS with 2% FCS. […] Cells were analyzed by flow cytometry on a FACS-Calibur (Becton Dickinson, Heidelberg).
B10: binds. B9: binds.
